The values that follow come from patent CN113929774A (INST MICROBIOLOGY CAS, dated 2022).

The target in this experiment is SARS-CoV-2野生型(WT)活病毒的S蛋白 (hCoV-19/China/CAS-B001/2020) (SARS-CoV-2, UniProt P0DTC2 14-1273). Nature of the experiment: cell-based or functional assay.

B1: 9K抗体 (antibody, V domains shown)
VH: EVQLVESGGGVVQPGRSLGLSCAVSGFTFSSYAMHWVRQAPGKGLEWVALISNDGTIDSYADSVKGRFTISRDNSKNTLYLRMSSLRAEDTAVYYCARDKEQLVPTFDYWGQGTLVTVSS
VL: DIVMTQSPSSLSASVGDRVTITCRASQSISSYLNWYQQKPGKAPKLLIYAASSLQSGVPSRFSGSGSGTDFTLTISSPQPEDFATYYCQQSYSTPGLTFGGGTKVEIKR
As for B1, the “中和滴度(半抑制浓度，IC50), live virus CPE assay on Vero E6 cells” value came out at 49.4 µg/mL.
